In the supplement of paper PMC12636428:

The sequences below were run on Saccharomyces cerevisiae (assay: transcriptional activation domain activity (GFP:mCherry ratio, weighted mean of sorted bins, harmonized to initial dataset scale) (arbitrary fluorescence ratio units); higher = stronger transcriptional activation). Details: beta-estradiol 1 µM; induction time 4 h.
Outline: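 The listed activation activity is a read-weighted mean of bin median fluorescence, averaged across barcodes and linearly mapped onto the initial dataset scale. Barcoded tiles, fused to an estradiol-inducible synthetic transcription factor, were integrated at URA3 in yeast diploids bearing a GFP reporter. Cells were held 4 hours at 30 °C in SC with 1 uM beta-estradiol, sorted into 8 GFP:mCherry bins, and sequenced, and tiles with fewer than 50 reads were excluded.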

Sequence | transcriptional activation domain activity
PTRRSFSSAWFLCIRYFSLCSNIVVIVDTFGTFSYNVPMYGLSKKLLMWLACV | 47900
GEEDAEEEAKPKKGGKRKAEPVKEEDDEPEEAPAKPKRGRKSAKEQVKEEIKE | 42700
ERDMELLVGHFDFMAKEAFLADSISLCSTEEELERRLDTPVIQEDSPVMDNNT | 62900
AWWIGLSGGLYGCITLMPIFFHDSPYYAPLSFTAWFLYMESFWYLPFLDLCYL | 46000
LMVDEPFEHRLFFLLLFQEGNVCQAQSFQLSGFECMCMVSSQFFFLVWVLYFM | 45600
RKTKFPILLSGDGYIHFGFLYAVIPNLNIMAMSYVAVINNVRVVAYLCLWMSL | 50800
SDSGSEGDSDSDRGRSRKRKKGKSTGKSKSKSKSKSRRNASGSDDESESGSGS | 35300
LSIFSWMSWIAPESLNLSTITGFNNGLGINPWPTWDWNTLLFDAADPLMIPFF | 39700
KKLTRGKGKKSKGKKARSNAKRSKGKGKVTKEDTSDEEDEEEGEEERGEEEEE | 12500
SITILVNIFLLHGSVKFIQKCLQYIGYIAEEVRSSLPLHKCLYWPLLIMLRLL | 45200
MGDCIKVHVSFHCRFLVFIYTHTFFLFLFYSSSIVFCFIYIYIFPFISFFWGL | 36000
TWPINYRIRYILPLLVIAGYTKETLRLIQCIHQTRSSFFTPHFFRRMLRVLLR | 52500
MEWVRTARGRVPPGRRPVEGGYESSGARLYHALAVVDGVRVPGKTGEHLGGCN | 32000
SDVEDEESSEDEAPARGKKRGRAGQAAKRRRESSLLVTVFADVLVTDVSVFVG | 59400
NGPRRNNNTPNNSPLNPGENGTSRPPRQRNPRNRPPRPRTQDNAPEPSEPASG | 19800
MYILFFFNIYYLYSILHLFCFRFFFISLFSFSFSLLSLLTYFLQYYIIIYLKI | 58200
EEEAPEDNSGPRQGAKPAKRAHARARAPKCSGPTNAKVNGKGRARRSGRPAKK | 24900
NILKLPSMVDGSQHCDISKFIVAAAHKIVTPDVSPRGWVLLKLLRSYIELDMY | 29100
KLYQLKLKIFLYWQRYSYLYAKRKHSTKHHTLLVWSLKVKKLYGILWCFLLLF | 36600
KPKPKPKQYPKVILPSNSTRRVSPVTAKTSSSAEGVVVASESPVIAPHGSSHS | 47200
SSSSASSSSASARGRKTQAARSTKKRKRRDAVSSANKDEDNDSDASNDEDEDE | 27500
FQNISNTILDISLSHGKVPNMDQLTRELFGASDSYQDILDENNVDVSWVDKLV | 103000
AMPTFDLVMWYREFQRILLEMRAYVIYKATVLPRWSNPSYDRPFPVLPVRGVI | 48600
SHREEAHEKASESESESGSEEQGSGGEKSEPKPEAEADGAADEASPGEEEGSQ | 24600
DAPEKEPEAEAAKPKGRGGRPKKVVPPAAAAPAPKEKEEPKPKAAAGRKRKAP | 32100
MFFLPFGIFFFFACFFSLFTFADSWLAVFLPDRFLLSFVLFNFAFFFFFFTTL | 31900
MPQSLTCRSASIIATQDCFDVIIFRLRFLLDIARGTLLLFRDHGRALTPFGRP | 51100
ATDCAVKALRALQILMDHPTFPYDACLDLWHRCWPWMHFVHTFWKYLPGFVTG | 57200

Sequence | transcriptional activation domain activity
TLELFKLKLVRPASKVYHMGGCAELWGFLVMQNHFRDGEGGHFNSITIDVKWA | 59800
GKPAASAFGGGSSAFGAGSGAFGGGGGGGPSAFGAPASKPSAFGTGGAFGGGA | 51100
DSRKEERRPSGHERKDRERGRDSRKDRDRKRKERLDDTASDDKKDRKRDRGEK | 24700
SAFGSSANAPTSGGFGAFGQPVAAAATTSAFGSTTPFGAAAPSPAAPAAAASP | 25700
KRRRWQLALLLLFWFAWLATFITVIHNSRFVSKVNGQDPYLLSCTSVLWSKNN | 47100
KSYVAILGYIMYPPTTRLVIHIRVWADALRALSSQAMLKTYLLTRGYQFRSIV | 58900
LHKRLEVTAYITCTRVIQRVVWFLLQGKYRLDYYWEEVWRALLNLLDFISNKI | 71300
ILDLTVRFWGNVKLLRRLWNGIYHFASYHMSSMTRAKVTIVSDLLLGTYILKR | 70700
TDAAADAPKEDEVKEGEEKMETESTEEKKESESAEEKPAEETAASADTEMAEA | 25600
APQGEEKAPAPRRSKRAKTAAPSDQETEETATKVVAGKAGAGKGKAVAAKAAA | 51800
IRQLFGNYVLLYFFPWGFGCGFLPVLFPVQTCRIYHYLLFYFFFLSPFFFSIP | 36700
VKFRFLTYSRWLVLILYVFSWSFTIISMLLVTTNNANFTSCFLSIMVCDIFYS | 71700
MTNLFSASFLSSSSSLSFFFSLFFLLFQRYLLEERPLTIMAFYLLPFFFSLSL | 29800
YICQYHGSLIGKHFKSLMQVMPFLIYDLVAQDILCAWNIIGVLVVLLWHTEIE | 81900
MVTISTDWFGWFVYLRFSGHLGVNCFYFIIRFFLFWVAFQLHVCIFSLPLVSC | 51400
RAYQQPILEYCRDAIDKESATTLSDERTVSKDDAEAKYSRVISACISLLASLL | 30600
IQAYLVNFLSSACLMNFWVTLTFLLGGEPYHYSTYVLLVGWMFIYLILLFGLI | 37700
PESINYVLEQGSLLSRFTYRFVIFICKLARINQPTYRLLIRFGLLDMILRICV | 87400
VFLHHFRRAIFPLCNLVCSSWNVITFSHPWMIFAIIMFLHWSWILGLQKGMLI | 83600
EQKVPEGVKDSWDASSDEEEEETAVKPSKPAAAANGKSPSAPAKAATHAKPAP | 23500
QLTRGNWSDLFFLFIFLWIVLFFFLLHWSWAWLLVFVLSICSSGLLGAILFFF | 27200
MLDVNMSCPFADIRYLLVFSCYFADYLLMLQIWGFCLWLFTLIYMVGGVWLMV | 34300
SAHWILKAYYTDRRVLFGFCFGNEAFFMLIYLMEYLDGFCFYFVSFLALLAFP | 57200
FIVLYLSHRQLIIVNPCYLLGHHACSLLCLLILHNFHIWLSYVGTVLFCFCFS | 78400
MFCLRSWIPILFFLSVSNASPIYLILFVVTTYLLNRPCVYCSLLLGVLVLALF | 38500
HVAMRAAVKANNSVMHRLLRNWGENRRRHFHGLLLVRLFRTTLVFSCADEVAA | 53300
MYVGGVFSVSLFESVCYFVIFFSSLDLLLLLLLLFFSFLFFSFLFFFFSLVPS | 44800
